From patent US20240109971A1 (MONASH UNIVERSITY, published 2024)
Positions count from the first letter of the chain named. Like-named read-outs stand apart in the source and are kept apart here. Values belong to the binder of their own block, whether it stands above or below them.

Key:
[1] = molecular target: T1, Peptide 1 (amino acid position 1-28 of the human CCR6) (human, biotinylated); assay: ELISA, biotinylated peptide on a streptavidin-coated plate
T1 construct: also called first 28 AA
T1 peptide: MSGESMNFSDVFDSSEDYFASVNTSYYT
Description: (§1) Two overlapping biotinylated peptides spanning the entire N-terminal region of human CCR6 were then synthesized and used in more defined anti-CCR6 mAb epitope mapping studies. Peptide 1 ([…], SEQ ID NO: 2) corresponds to amino acid position 1-28 of the human CCR6 and Peptide 2 ([…], SEQ ID NO: 101) corresponds to amino acid position 18-46 of the human CCR6. Briefly, multiwell plates were coated with streptavidin and washed before the biotinylated peptides were added to separate wells and incubated to facilitate binding of the peptides to the plate. Different anti-human CCR6 antibodies were then tested by adding the respective antibodies to the wells of the plate and incubating the plate. An isotype control and buffer only were included as negative controls. Following washing, appropriate conjugated antibodies were added and the plates were incubated. The plates were washed again and binding of the antibodies to the immobilised peptides was visualised (FIGS. 8 and 9).

[2] = molecular target: T2, human CCR6 (human, UniProt P51684 1-374); assay: flow cytometry, hybridoma culture supernatant on L1.2/hCCR6 transfectants
T2 construct: also called hCCR6; CD196
T2 sequence: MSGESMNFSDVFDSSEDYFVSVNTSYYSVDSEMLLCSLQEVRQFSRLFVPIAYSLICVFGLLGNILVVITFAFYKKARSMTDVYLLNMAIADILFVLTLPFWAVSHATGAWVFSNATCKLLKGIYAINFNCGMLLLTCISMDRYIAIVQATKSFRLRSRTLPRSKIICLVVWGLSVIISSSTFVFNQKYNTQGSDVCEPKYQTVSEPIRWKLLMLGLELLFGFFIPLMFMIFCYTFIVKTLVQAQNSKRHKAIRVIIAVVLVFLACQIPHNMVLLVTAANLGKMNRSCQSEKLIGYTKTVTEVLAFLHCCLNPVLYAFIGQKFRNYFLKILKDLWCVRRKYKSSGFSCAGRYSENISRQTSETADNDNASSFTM

[3] = molecular target: T3, hCXCR1 (human, UniProt P25024 1-350); assay: flow cytometry, hybridoma culture supernatant on L1.2/hCXCR1 transfectants
T3 construct: whole, on cells; also called hCXCRI; human CXCR1 transfected L1.2 cells
T3 sequence (looked up): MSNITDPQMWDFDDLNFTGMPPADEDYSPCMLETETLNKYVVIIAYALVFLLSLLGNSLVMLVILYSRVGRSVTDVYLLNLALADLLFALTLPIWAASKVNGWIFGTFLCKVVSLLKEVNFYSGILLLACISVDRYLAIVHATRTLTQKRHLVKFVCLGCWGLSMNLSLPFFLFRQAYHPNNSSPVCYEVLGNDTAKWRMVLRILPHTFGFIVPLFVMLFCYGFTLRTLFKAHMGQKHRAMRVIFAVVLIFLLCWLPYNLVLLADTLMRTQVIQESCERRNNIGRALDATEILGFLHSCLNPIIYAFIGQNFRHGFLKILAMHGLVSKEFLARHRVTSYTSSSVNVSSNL

[4] = molecular target: T4, hCXCR2 (human, UniProt P25025 1-360); assay: flow cytometry, hybridoma culture supernatant on L1.2/hCXCR2 transfectants
T4 construct: whole, on cells; also called human CXCR2 transfected L1.2 cells
T4 sequence (looked up): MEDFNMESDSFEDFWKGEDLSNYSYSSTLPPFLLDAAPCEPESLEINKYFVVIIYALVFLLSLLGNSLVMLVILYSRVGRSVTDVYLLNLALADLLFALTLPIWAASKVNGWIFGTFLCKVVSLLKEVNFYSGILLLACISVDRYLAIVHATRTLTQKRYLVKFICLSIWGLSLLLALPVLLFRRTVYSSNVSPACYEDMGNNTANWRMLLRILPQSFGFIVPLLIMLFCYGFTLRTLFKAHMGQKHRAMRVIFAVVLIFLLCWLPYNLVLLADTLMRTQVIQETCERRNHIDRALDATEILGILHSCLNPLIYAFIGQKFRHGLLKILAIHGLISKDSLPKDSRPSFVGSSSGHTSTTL

[5] = molecular target: T5, hCXCR3 (human, UniProt P49682 1-368); assay: flow cytometry, hybridoma culture supernatant on L1.2/hCXCR3 transfectants
T5 construct: whole, on cells; also called human CXCR3 transfected L1.2 cells
T5 sequence (looked up): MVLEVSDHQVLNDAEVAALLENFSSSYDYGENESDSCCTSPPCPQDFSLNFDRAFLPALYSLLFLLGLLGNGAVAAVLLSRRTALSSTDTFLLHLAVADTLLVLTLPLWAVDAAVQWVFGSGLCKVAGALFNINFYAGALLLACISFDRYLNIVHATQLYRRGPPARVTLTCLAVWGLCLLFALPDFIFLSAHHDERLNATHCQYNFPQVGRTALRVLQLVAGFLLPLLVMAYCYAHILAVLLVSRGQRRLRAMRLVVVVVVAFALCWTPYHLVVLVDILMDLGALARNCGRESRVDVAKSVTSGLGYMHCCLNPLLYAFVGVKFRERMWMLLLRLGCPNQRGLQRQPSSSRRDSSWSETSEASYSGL

[6] = molecular target: T3, hCXCR1; assay: flow cytometry, hybridoma culture supernatant on L1.2/hCXCR1 transfectants; remark: listed apart in the source
Description: (§2) Monoclonal antibodies reactive with CCR6 were identified using human CCR6 transfected L1.2 cells, and untransfected L1.2 cells, or L1.2 cells transfected with unrelated or closely receptors such as hCXCRI, hCXCR2 or hCXCR3 using immunofluorescent staining and analysis using a FACSCalibur (BD Biosciences). Monoclonal antibody staining of cells was performed using standard procedures as described previously (Lee et al., 2006, Nat. Biotech. 24:1279-1284).
(§3) L1.2 transfectants expressing high levels of hCCR6 were used to immunize mice, and approximately 40 monoclonal antibodies were initially identified via flow cytometry that reacted with L1.2 cells transfected with hCCR6, of which approximately 10 reacted specifically with L1.2/hCCR6 transfectants but not with untransfected L1.2 cells or with L1.2 cells transfected with the closely related receptors hCXCRI, hCXCR2 or hCXCR3 (FIG. 3).

[7] = molecular target: T4, hCXCR2; assay: flow cytometry, hybridoma culture supernatant on L1.2/hCXCR2 transfectants; remark: listed apart in the source
Description: as §2, §3

[8] = molecular target: T5, hCXCR3; assay: flow cytometry, hybridoma culture supernatant on L1.2/hCXCR3 transfectants; remark: listed apart in the source
Description: as §2, §3

[9] = molecular target: T2, human CCR6; assay: competition with 125I-MIP-3α for L1.2/hCCR6 transfectants, partially purified mAb
Description: For ligand binding analysis, recombinant human CCL20 (MIP3α) (“ligand”) was obtained from Peprotech (New Jersey, USA). […] Cells were washed once in binding buffer (50 mM Hepes, pH 7.5, 1 mM CaCl, 5 mM MgCb, 0.5% BSA) and resuspended in binding buffer at a concentration of 2.5×10^6 cells/ml. Cold Purified monoclonal antibody or diluted hybridoma culture medium (cold competitor) was added to a 96-well plate followed by an equal volume (40 μl) binding buffer containing 1×10^5 cells. Cells and competitor were preincubated at room temperature for 15 min. Then radiolabeled ligand (final concentration 0.5-2 nM) was added to each well to give a final reaction volume of 120 μl. After a 60-min incubation at room temperature, the cells were washed three times with 1 ml of binding buffer containing 150 mM NaCl. The radioactivity (amount of bound label) in the cell pellets was counted in a TopCount liquid scintillation counter (Packard). Non-specific background binding was calculated by incubating cells […]. Samples were assayed in duplicate.
After incubation and washing the amount of label bound to cells was measured and the percentage inhibition determined by comparison to a control reaction with no added antibody (FIGS. 1 and 5).

[10] = molecular target: T6, Peptide 2 (amino acid position 18-46 of the human CCR6) (human, biotinylated); assay: ELISA, biotinylated peptide on a streptavidin-coated plate
T6 construct: also called AA 18 to 46
T6 peptide: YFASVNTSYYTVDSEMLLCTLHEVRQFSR
Description: as §1

B1: AB3 (antibody, V domains shown)
VH: EVNLVESGGGLVQPGGSLKLSCAASGFTFSDYYLYWVRQTPEKRLEWVTYITNGGGRTYYSDTVRGRFTISRDNAKNTLYLQMSRLKSEDTAMYYCASPPLGGAWFGYWGQGTLVTVS
VL: DVLMTQTPLSLPVSLGDQASISCRSSQSIVHSNGNTYLEWYLQKPGQSPKLLIYKVSKRFSGVPDRFSGSGSGTDFTLKISRVEAEDLGVYYCFQGSHVPLTFGAGTKLELKR
notes: Mouse hybridoma antibody, isotype IgG1; also called AB3-N21
binding result [1]: binds
binding result [2]: binds
binding result [3]: no binding (tested: not given (culture supernatant))
binding result [4]: no binding (tested: not given (culture supernatant))
binding result [5]: no binding (tested: not given (culture supernatant))

B2: AB1 (antibody, V domains shown)
VH: B1 VH with L34M, G55D, A97T
VL: B1 VL
notes: Mouse hybridoma antibody, isotype IgG1; also called AB1-O17
binding result [1]: binds
binding result [6]: no binding (tested: not given (culture supernatant))
binding result [7]: no binding (tested: not given (culture supernatant))
binding result [8]: no binding (tested: not given (culture supernatant))
binding result [9]: binds

B3: AB11 (antibody, V domains shown)
VH: B1 VH with K19I, A23E, T28S, L34M, T63A, V64I, K76R, A97T
VL: B1 VL with L3S, I29L
notes: Mouse hybridoma antibody, isotype IgG1; also called AB11-M9
binding result [1]: binds
binding result [9]: binds

B4: AB4 (antibody, V domains shown)
VH: B1 VH with L34M
VL: B1 VL with I29L, E84G
notes: Mouse hybridoma antibody, isotype IgG2b; also called AB4-K15
binding result [2]: binds
binding result [3]: no binding (tested: not given (culture supernatant))
binding result [4]: no binding (tested: not given (culture supernatant))
binding result [5]: no binding (tested: not given (culture supernatant))

More lines, main results first:

binding result [1]: binds
IC50 (read off the curve) [9]: ~7 nM
B5: mouse AB6 mAb (antibody, V domains shown)
VH: B1 VH with N3K, T28P, T49A, G55V, T63S, R65K, A92S, A97T, G107A
VL: B1 VL
notes: Mouse hybridoma antibody, isotype IgG2b; also called mAB6; AB6-K5
binding result [3]: no binding (tested: not given (culture supernatant))
binding result [4]: no binding (tested: not given (culture supernatant))
binding result [5]: no binding (tested: not given (culture supernatant))

binding result [1]: binds
binding result [9]: binds
B6: AB2 (antibody, V domains shown)
VH: B1 VH with A23E, T28S, L34M, V64I, K76R, A97T
VL: B1 VL with L3S, I29L
notes: Mouse hybridoma antibody, isotype IgG1; also called AB2-O17

binding result [9]: binds
B7: AB5 (antibody, V domains shown)
VH: B1 VH with A23E, L34M, G55A, G107A
VL: B1 VL with L3S, I29L
notes: Mouse hybridoma antibody, isotype IgG1; also called AB5-M19

binding result [1]: binds
binding result [10]: binds
B8: AB7 (antibody, V domains shown)
VH: QDQLQQSGVALARPGASVKLSCKASEYTFKSFGLGWVKQRPGQGLEWIGEIYPRSGNTYYNEKVKGKVRLTADKSSNSVYMEFRSLTSEDSAVYFCARSPYDGYFDYWGQGTTLTVS
VL: DVVMTHSPLSLPVSLGDQASISCRSSQSLLHINGNTYLHWYLQKPGQSPKLLIYRVSNRLSGVPDRFSGSGSGTDFTLKISRVEAEDLGVYFCSQSTHVPRTFGGGTKLEIKR
notes: Mouse hybridoma antibody; also called clone AB7
